Assay results taken from publication PMC10681739, “High-throughput data and modeling reveal insights into the mechanisms of cooperative DNA-binding by transcription factor proteins”.

T1: ETS1 (Homo sapiens, UniProt P14921)
T1 sequence: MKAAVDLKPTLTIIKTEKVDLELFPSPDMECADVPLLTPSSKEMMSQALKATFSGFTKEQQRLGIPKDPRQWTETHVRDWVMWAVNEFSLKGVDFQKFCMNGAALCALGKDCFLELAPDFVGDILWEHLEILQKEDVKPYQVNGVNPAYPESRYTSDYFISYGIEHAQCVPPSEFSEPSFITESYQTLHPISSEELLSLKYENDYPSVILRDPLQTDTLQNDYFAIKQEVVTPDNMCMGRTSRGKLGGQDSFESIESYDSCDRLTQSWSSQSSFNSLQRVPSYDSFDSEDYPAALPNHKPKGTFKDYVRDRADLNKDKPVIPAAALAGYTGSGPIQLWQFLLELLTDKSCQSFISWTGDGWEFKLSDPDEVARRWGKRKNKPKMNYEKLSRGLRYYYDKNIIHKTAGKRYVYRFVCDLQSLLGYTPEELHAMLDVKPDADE


Target: T1, ETS1
Assay: gcPBM; 1 nM ETS1
Conditions: tags: N-terminal GST (pDEST15), kept (PMC6008103); label: surface-attached array probe

| Binder | binding signal |
| --- | --- |
| Table S2 B row 1299 (dsDNA) DNA 1: AGGAGTGTCACTTCCTCTTTCCTCACCAGAGCCTCC DNA 2: GGAGGCTCTGGTGAGGAAAGAGGAAGTGACACTCCT | 9350 PBM fluorescence, median of replicate spots |
| Table S2 B row 185 (dsDNA) DNA 1: GCCAGGAGGACTTCCGGGTGGGTGTGATATCTGCGA DNA 2: TCGCAGATATCACACCCACCCGGAAGTCCTCCTGGC | 11300 PBM fluorescence, median of replicate spots |
| Table S2 B row 717 (dsDNA) DNA 1: AATCCCGGAAACGCGGATTCAGCGGAGCGCGGCGAC DNA 2: GTCGCCGCGCTCCGCTGAATCCGCGTTTCCGGGATT | 7670 PBM fluorescence, median of replicate spots |
| Table S2 B row 4091 (dsDNA) DNA 1: GGCATTCACTTCCGGTCTGGGGCCTACGGCGGCGGC DNA 2: GCCGCCGCCGTAGGCCCCAGACCGGAAGTGAATGCC | 37100 PBM fluorescence, median of replicate spots |
| Table S2 B row 741 (dsDNA) DNA 1: CAACTTCCGGGGCCGGTTGCCTGGCAACAGCAGGAG DNA 2: CTCCTGCTGTTGCCAGGCAACCGGCCCCGGAAGTTG | 35000 PBM fluorescence, median of replicate spots |
| Table S2 B row 1677 (dsDNA) DNA 1: TGTTTTTGTTTCCGTTTACAAACTACAACAAAGGTG DNA 2: CACCTTTGTTGTAGTTTGTAAACGGAAACAAAAACA | 5730 PBM fluorescence, median of replicate spots |
| Table S2 B row 2731 (dsDNA) DNA 1: AGAACCACTTCCTCTCAGTAAATCACAGAGACTGTA DNA 2: TACAGTCTCTGTGATTTACTGAGAGGAAGTGGTTCT | 10400 PBM fluorescence, median of replicate spots |
| Table S2 B row 2669 (dsDNA) DNA 1: CCCCTCAGCTTCCGGGTGCTGCGCCCGAGGCCGAGA DNA 2: TCTCGGCCTCGGGCGCAGCACCCGGAAGCTGAGGGG | 9110 PBM fluorescence, median of replicate spots |
| Table S2 B row 2565 (dsDNA) DNA 1: AGCCACATCCTGGACAAAAGCTGTTGTCTAGTAACC DNA 2: GGTTACTAGACAACAGCTTTTGTCCAGGATGTGGCT | 7070 PBM fluorescence, median of replicate spots |
| Table S2 B row 2712 (dsDNA) DNA 1: TGGGGCGAAATCCACTGACTTCCGGCTACGCCGTTG DNA 2: CAACGGCGTAGCCGGAAGTCAGTGGATTTCGCCCCA | 10100 PBM fluorescence, median of replicate spots |
| Table S2 B row 3173 (dsDNA) DNA 1: GACTGCACTTCCTCTGCTTCGAGGTCGGTGCTTAGC DNA 2: GCTAAGCACCGACCTCGAAGCAGAGGAAGTGCAGTC | 6100 PBM fluorescence, median of replicate spots |
| Table S2 B row 785 (dsDNA) DNA 1: ATAGTCTCTTCCTGTGTTGCAAATCACAGGTCCACC DNA 2: GGTGGACCTGTGATTTGCAACACAGGAAGAGACTAT | 7860 PBM fluorescence, median of replicate spots |
| Table S2 B row 123 (dsDNA) DNA 1: ACAACCCGGAAGTTGGCGCAGCGCGCTTGCCAATGG DNA 2: CCATTGGCAAGCGCGCTGCGCCAACTTCCGGGTTGT | 12000 PBM fluorescence, median of replicate spots |
| Table S2 B row 3063 (dsDNA) DNA 1: GTATCACTTCCTGTTTTCCTCTGTAGCTTACTGCTG DNA 2: CAGCAGTAAGCTACAGAGGAAAACAGGAAGTGATAC | 30200 PBM fluorescence, median of replicate spots |
| Table S2 B row 1200 (dsDNA) DNA 1: GGTTCATTTCCTTTTCCTCCTTGGGGTATAAAAGAG DNA 2: CTCTTTTATACCCCAAGGAGGAAAAGGAAATGAACC | 8120 PBM fluorescence, median of replicate spots |
| Table S2 B row 2465 (dsDNA) DNA 1: CTACGACTTCCGTGATGCCTTACGGTTGCTGTAGCC DNA 2: GGCTACAGCAACCGTAAGGCATCACGGAAGTCGTAG | 7160 PBM fluorescence, median of replicate spots |
| Table S2 B row 2829 (dsDNA) DNA 1: AGTGTCCGCCGCTTCCTGGTTGCGCGTCAGCGCCCA DNA 2: TGGGCGCTGACGCGCAACCAGGAAGCGGCGGACACT | 5900 PBM fluorescence, median of replicate spots |
| Table S2 B row 3959 (dsDNA) DNA 1: AAGGGCAAAGTCACAGCCACTTCCGCCCAGCGCTTC DNA 2: GAAGCGCTGGGCGGAAGTGGCTGTGACTTTGCCCTT | 7470 PBM fluorescence, median of replicate spots |
| Table S2 B row 3533 (dsDNA) DNA 1: CCATTTCCCGCCTACCGACCTGCTGCACCTCACGGA DNA 2: TCCGTGAGGTGCAGCAGGTCGGTAGGCGGGAAATGG | 9790 PBM fluorescence, median of replicate spots |
| Table S2 B row 526 (dsDNA) DNA 1: TTACTTCCTGAGGGTGCACAGGCTGGGGTCGTCTAT DNA 2: ATAGACGACCCCAGCCTGTGCACCCTCAGGAAGTAA | 8570 PBM fluorescence, median of replicate spots |
| Table S2 B row 3820 (dsDNA) DNA 1: GGCGGCTTCCGGGATCTGCCTGGCGCTTGCTTTGTC DNA 2: GACAAAGCAAGCGCCAGGCAGATCCCGGAAGCCGCC | 8430 PBM fluorescence, median of replicate spots |

| Binder | binding signal |
| --- | --- |
| Table S2 B row 771 (dsDNA) DNA 1: AACAGGAAGTGGTCTTAGAGATCATGGGGTTCAGAG DNA 2: CTCTGAACCCCATGATCTCTAAGACCACTTCCTGTT | 7400 PBM fluorescence, median of replicate spots |
| Table S2 B row 2131 (dsDNA) DNA 1: CTACTTTCCGGTCAACGCGGCCTGGGGTACCACCTC DNA 2: GAGGTGGTACCCCAGGCCGCGTTGACCGGAAAGTAG | 9890 PBM fluorescence, median of replicate spots |
| Table S2 B row 3240 (dsDNA) DNA 1: CTGTCCGCGACATCCGGGACCTGGGGGACCGCCGAT DNA 2: ATCGGCGGTCCCCCAGGTCCCGGATGTCGCGGACAG | 8950 PBM fluorescence, median of replicate spots |
| Table S2 B row 16 (dsDNA) DNA 1: CCACTGCTTCCGCCTTCTCTGCTGGCTGAGGGGAGC DNA 2: GCTCCCCTCAGCCAGCAGAGAAGGCGGAAGCAGTGG | 8730 PBM fluorescence, median of replicate spots |
| Table S2 C row 81 (dsDNA) DNA 1: AGCCTGACTCTGTGCTGTGGTTGTGAGGCTGGAATG DNA 2: CATTCCAGCCTCACAACCACAGCACAGAGTCAGGCT | 440 PBM fluorescence, median of replicate spots |
| Table S2 B row 1635 (dsDNA) DNA 1: GGACAGGAAGTTCCTGCAGCTTCTACCCCAAACCTA DNA 2: TAGGTTTGGGGTAGAAGCTGCAGGAACTTCCTGTCC | 9480 PBM fluorescence, median of replicate spots |
| Table S2 B row 2841 (dsDNA) DNA 1: CCTGTTTCCTGCCATCTGCCCTTCCTTTGGGGTCAA DNA 2: TTGACCCCAAAGGAAGGGCAGATGGCAGGAAACAGG | 8210 PBM fluorescence, median of replicate spots |
| Table S2 B row 1623 (dsDNA) DNA 1: ACATTTCCGTTCAGCTCAGTGTTCACGGTGCGAGAC DNA 2: GTCTCGCACCGTGAACACTGAGCTGAACGGAAATGT | 32300 PBM fluorescence, median of replicate spots |
| Table S2 B row 559 (dsDNA) DNA 1: GCAGCATTTCCTGACTTCTTCGCCCCTGTCGTTGCA DNA 2: TGCAACGACAGGGGCGAAGAAGTCAGGAAATGCTGC | 6900 PBM fluorescence, median of replicate spots |
| Table S2 C row 4 (dsDNA) DNA 1: GAAAGAGCGAAATGTTGCGGTTTAGTTAATGCTTTG DNA 2: CAAAGCATTAACTAAACCGCAACATTTCGCTCTTTC | 442 PBM fluorescence, median of replicate spots |
| Table S2 B row 1656 (dsDNA) DNA 1: CTCTGAGCAGGAAGTGACAAATCCACGCAGGGCAGG DNA 2: CCTGCCCTGCGTGGATTTGTCACTTCCTGCTCAGAG | 6750 PBM fluorescence, median of replicate spots |
| Table S2 B row 4089 (dsDNA) DNA 1: GCTGTTTCCTGCTGATAAAAACACCCCTCAACTTCA DNA 2: TGAAGTTGAGGGGTGTTTTTATCAGCAGGAAACAGC | 11800 PBM fluorescence, median of replicate spots |
| Table S2 C row 64 (dsDNA) DNA 1: GACAGAAAGCAAATTAGTGGTAGCCAAGGGCTAGGG DNA 2: CCCTAGCCCTTGGCTACCACTAATTTGCTTTCTGTC | 439 PBM fluorescence, median of replicate spots |
| Table S2 B row 2356 (dsDNA) DNA 1: CTTCTTCCTGCTGAGACTGATACAGCCCGAAAAGCT DNA 2: AGCTTTTCGGGCTGTATCAGTCTCAGCAGGAAGAAG | 6230 PBM fluorescence, median of replicate spots |
| Table S2 B row 2667 (dsDNA) DNA 1: GGGATCTACTTCCTCTCTCGGCCTCGGGCGCTGCAC DNA 2: GTGCAGCGCCCGAGGCCGAGAGAGGAAGTAGATCCC | 6350 PBM fluorescence, median of replicate spots |
| Table S2 B row 1811 (dsDNA) DNA 1: GGTTTCGCTTCCGGGTTAGGCGGCCGGAGAAGCGTA DNA 2: TACGCTTCTCCGGCCGCCTAACCCGGAAGCGAAACC | 11000 PBM fluorescence, median of replicate spots |
| Table S2 B row 3759 (dsDNA) DNA 1: AGCGGCTCCTTCCGGCGGCGCCGGTTCCCTTCCCTC DNA 2: GAGGGAAGGGAACCGGCGCCGCCGGAAGGAGCCGCT | 6670 PBM fluorescence, median of replicate spots |
| Table S2 B row 3124 (dsDNA) DNA 1: TCCACATCCTGCTCCTCGGGTTTACGGCGAGGACTC DNA 2: GAGTCCTCGCCGTAAACCCGAGGAGCAGGATGTGGA | 10800 PBM fluorescence, median of replicate spots |
| Table S2 B row 1434 (dsDNA) DNA 1: GGCCGGAAGCGCTCTCGTTGGCCCAGCGGCGCTGGA DNA 2: TCCAGCGCCGCTGGGCCAACGAGAGCGCTTCCGGCC | 6040 PBM fluorescence, median of replicate spots |
| Table S2 B row 1497 (dsDNA) DNA 1: CAACACAGGATGTGCAGTATTATACGGCAAAGCACT DNA 2: AGTGCTTTGCCGTATAATACTGCACATCCTGTGTTG | 6480 PBM fluorescence, median of replicate spots |
| Table S2 C row 176 (dsDNA) DNA 1: ATATCCACTCAGTAGTGTGGTTTGTAAGGACTAAAT DNA 2: ATTTAGTCCTTACAAACCACACTACTGAGTGGATAT | 440 PBM fluorescence, median of replicate spots |
